Laboratory results: patent publication US20140087995A1 (published 2014)
Each block holds one binder with its values, some of them ahead of it. Numbered stars: 1 amine (or outer) side, 2 acyl side, 3 side chain; on linkers, the order of the positions; unused ones are H or OH. Bridge positions count the residues as written; N and C are the ends. Side chains are listed from the residue outwards. Ends that are not written are not given here. * marks the point of attachment. C20 diacid = O=C(O)CCCCCCCCCCCCCCCCCCC(=O)*; γGlu = O=C(O)[C@H](CCC(=O)[*:2])N[*:1]

Columns and labels:
[1] = target: T1, human calcitonin receptor (human, UniProt P30988 25-474); experiment: ratio of IC50 on human calcitonin receptor to IC50 on human amylin receptor
T1 construct: whole, on cells; Membranes from stably transfected BHK cells; also called hCTR; hCT
T1 sequence (looked up): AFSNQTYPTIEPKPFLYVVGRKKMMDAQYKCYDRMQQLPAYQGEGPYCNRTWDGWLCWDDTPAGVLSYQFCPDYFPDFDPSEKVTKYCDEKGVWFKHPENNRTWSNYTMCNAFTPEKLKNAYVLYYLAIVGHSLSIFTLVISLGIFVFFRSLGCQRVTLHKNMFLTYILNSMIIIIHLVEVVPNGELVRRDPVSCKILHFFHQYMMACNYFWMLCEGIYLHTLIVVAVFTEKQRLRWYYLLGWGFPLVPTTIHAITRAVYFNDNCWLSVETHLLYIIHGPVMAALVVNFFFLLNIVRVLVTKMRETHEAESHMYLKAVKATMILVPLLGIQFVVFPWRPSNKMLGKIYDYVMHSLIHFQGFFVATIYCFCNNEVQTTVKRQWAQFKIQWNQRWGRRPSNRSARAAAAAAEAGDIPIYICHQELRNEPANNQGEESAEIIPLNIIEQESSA
How it was run: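 IC₅₀ values were derived by one-site competition analysis of SPA counts. Cell membranes (35 ng/μL) with SPA beads were incubated with test compounds for 120 min at 25° C in Hepes buffer, pH 7.4, containing CaCl2, MgCl₂, OA and Tween20.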

rat calcitonin receptor [2] = target: T2, rat calcitonin receptor (rat, UniProt P32214 25-516); experiment: SPA competition vs 125I-calcitonin, membranes (Assay VIII)
T2 construct: whole, on cells; Membranes prepared from transiently transfected BHK tk'ts 13 cells; also called rCTR; rat calcitonin (a) receptor
T2 sequence (looked up): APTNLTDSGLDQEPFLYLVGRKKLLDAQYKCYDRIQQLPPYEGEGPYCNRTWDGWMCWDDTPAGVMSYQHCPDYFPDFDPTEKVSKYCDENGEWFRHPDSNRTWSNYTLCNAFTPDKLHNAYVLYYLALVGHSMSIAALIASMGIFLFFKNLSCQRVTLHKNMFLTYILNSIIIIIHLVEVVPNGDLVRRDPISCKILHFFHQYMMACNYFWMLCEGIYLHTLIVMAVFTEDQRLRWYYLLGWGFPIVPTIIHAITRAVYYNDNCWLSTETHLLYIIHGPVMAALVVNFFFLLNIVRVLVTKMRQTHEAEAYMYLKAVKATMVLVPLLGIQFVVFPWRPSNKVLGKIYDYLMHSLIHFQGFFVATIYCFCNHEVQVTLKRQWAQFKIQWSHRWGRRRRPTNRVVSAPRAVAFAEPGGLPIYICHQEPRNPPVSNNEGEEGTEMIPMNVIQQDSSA

[3] = target: T3, rat amylin receptor (rat calcitonin receptor + rat RAMP 3) (rat, UniProt P32214 25-516; Q9JJ73 23-147); experiment: SPA competition vs 125I-rat amylin, membranes (Assay VI)
T3 construct: whole, on cells; Membranes prepared from transiently transfected BHK tk'ts 13 cells; also called rAmylin-R; rat amylin 3(a) receptor
T3 sequence (looked up) 1: T2 sequence (looked up)
T3 sequence (looked up) 2: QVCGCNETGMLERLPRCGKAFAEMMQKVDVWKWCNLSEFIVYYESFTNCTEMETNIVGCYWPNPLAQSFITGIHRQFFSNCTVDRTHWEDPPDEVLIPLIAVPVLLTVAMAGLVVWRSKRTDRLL

rat calcitonin receptor [4] = target: T2, rat calcitonin receptor; experiment: ratio of IC50 on rat calcitonin receptor to IC50 on rat amylin receptor

Ratio hCT/hAmylin binding [1]: 14.7
IC50 (rat calcitonin receptor [2]): 452 nM
IC50 [3]: 2.86 nM
Ratio rCT/rAmylin binding (rat calcitonin receptor [4]): 158
B1: N^ε1-[(4S)-4-carboxy-4-[[(4S)-4-carboxy-4-(19-carboxynonadecanoylamino)butanoyl]amino]butanoyl]-[Glu14,Arg17,Pro21,Pro27,Arg34,Glu35]-h-amylin (peptide)
peptide: K([γGlu-γGlu-C20 diacid])CNTATCATQRLAEFLRHSSPNFGAIPSSTNVGRETY-NH2
modifications: disulfide 2-7; N-terminus assumed
SMILES: CC[C@H](C)[C@H](NC(=O)[C@H](C)NC(=O)CNC(=O)[C@H](Cc1ccccc1)NC(=O)[C@H](CC(N)=O)NC(=O)[C@@H]1CCCN1C(=O)[C@H](CO)NC(=O)[C@H](CO)NC(=O)[C@H](Cc1c[nH]cn1)NC(=O)[C@H](CCCNC(=N)N)NC(=O)[C@H](CC(C)C)NC(=O)[C@H](Cc1ccccc1)NC(=O)[C@H](CCC(=O)O)NC(=O)[C@H](C)NC(=O)[C@H](CC(C)C)NC(=O)[C@H](CCCNC(=N)N)NC(=O)[C@H](CCC(N)=O)NC(=O)[C@@H](NC(=O)[C@H](C)NC(=O)[C@@H]1CSSC[C@H](NC(=O)[C@@H](N)CCCCNC(=O)CC[C@H](NC(=O)CC[C@H](NC(=O)CCCCCCCCCCCCCCCCCCC(=O)O)C(=O)O)C(=O)O)C(=O)N[C@@H](CC(N)=O)C(=O)N[C@@H]([C@@H](C)O)C(=O)N[C@@H](C)C(=O)N[C@@H]([C@@H](C)O)C(=O)N1)[C@@H](C)O)C(=O)N1CCC[C@H]1C(=O)N[C@@H](CO)C(=O)N[C@@H](CO)C(=O)N[C@H](C(=O)N[C@@H](CC(N)=O)C(=O)N[C@H](C(=O)NCC(=O)N[C@@H](CCCNC(=N)N)C(=O)N[C@@H](CCC(=O)O)C(=O)N[C@H](C(=O)N[C@@H](Cc1ccc(O)cc1)C(N)=O)[C@@H](C)O)C(C)C)[C@@H](C)O

Ratio hCT/hAmylin binding [1]: 29.1
IC50 (rat calcitonin receptor [2]): 498 nM
IC50 [3]: 3.14 nM
Ratio rCT/rAmylin binding (rat calcitonin receptor [4]): 159
B2: N^ε1-[(4S)-4-carboxy-4-[[(4S)-4-carboxy-4-(19-carboxynonadecanoylamino)butanoyl]amino]butanoyl]-[Glu14,Arg17,Pro21,Pro27,His34,Glu35]-h-amylin (peptide)
peptide: K([γGlu-γGlu-C20 diacid])CNTATCATQRLAEFLRHSSPNFGAIPSSTNVGHETY-NH2
modifications: disulfide 2-7; N-terminus assumed
SMILES: CC[C@H](C)[C@H](NC(=O)[C@H](C)NC(=O)CNC(=O)[C@H](Cc1ccccc1)NC(=O)[C@H](CC(N)=O)NC(=O)[C@@H]1CCCN1C(=O)[C@H](CO)NC(=O)[C@H](CO)NC(=O)[C@H](Cc1c[nH]cn1)NC(=O)[C@H](CCCNC(=N)N)NC(=O)[C@H](CC(C)C)NC(=O)[C@H](Cc1ccccc1)NC(=O)[C@H](CCC(=O)O)NC(=O)[C@H](C)NC(=O)[C@H](CC(C)C)NC(=O)[C@H](CCCNC(=N)N)NC(=O)[C@H](CCC(N)=O)NC(=O)[C@@H](NC(=O)[C@H](C)NC(=O)[C@@H]1CSSC[C@H](NC(=O)[C@@H](N)CCCCNC(=O)CC[C@H](NC(=O)CC[C@H](NC(=O)CCCCCCCCCCCCCCCCCCC(=O)O)C(=O)O)C(=O)O)C(=O)N[C@@H](CC(N)=O)C(=O)N[C@@H]([C@@H](C)O)C(=O)N[C@@H](C)C(=O)N[C@@H]([C@@H](C)O)C(=O)N1)[C@@H](C)O)C(=O)N1CCC[C@H]1C(=O)N[C@@H](CO)C(=O)N[C@@H](CO)C(=O)N[C@H](C(=O)N[C@@H](CC(N)=O)C(=O)N[C@H](C(=O)NCC(=O)N[C@@H](Cc1c[nH]cn1)C(=O)N[C@@H](CCC(=O)O)C(=O)N[C@H](C(=O)N[C@@H](Cc1ccc(O)cc1)C(N)=O)[C@@H](C)O)C(C)C)[C@@H](C)O
